The values that follow come from PMC2234252 (The Journal of Cell Biology, 2008).

This assay addresses T1, hZwint-1 (human, UniProt O95229 1-277).
T1 sequence (looked up): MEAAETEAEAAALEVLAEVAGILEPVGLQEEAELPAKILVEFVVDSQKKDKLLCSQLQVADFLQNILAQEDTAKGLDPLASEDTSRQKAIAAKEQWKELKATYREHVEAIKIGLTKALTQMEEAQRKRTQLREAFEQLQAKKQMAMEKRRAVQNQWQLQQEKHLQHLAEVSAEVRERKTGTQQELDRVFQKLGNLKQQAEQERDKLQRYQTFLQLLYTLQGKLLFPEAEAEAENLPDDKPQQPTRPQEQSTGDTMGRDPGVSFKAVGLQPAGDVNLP
The experiment in a line: two-hybrid.

B1: hZW10 N1 (aa 52–779) (domain or fragment, human, UniProt O43264 52-779, looked up)
chain: SMQSAQGLITQVDKLSEDIDLLKSRIESEVRRDLHVSTGEFTDLKQQLERDSVVLSLLKQLQEFSTAIEEYNCALTEKKYVTGAQRLEEAQKCLKLLKSRKCFDLKILKSLSMELTIQKQNILYHLGEEWQKLIVWKFPPSKDTSSLESYLQTELHLYTEQSHKEEKTPMPPISSVLLAFSVLGELHSKLKSFGQMLLKYILRPLASCPSLHAVIESQPNIVIIRFESIMTNLEYPSPSEVFTKIRLVLEVLQKQLLDLPLDTDLENEKTSTVPLAEMLGDMIWEDLSECLIKNCLVYSIPTNSSKLQQYEEIIQSTEEFENALKEMRFLKGDTTDLLKYARNINSHFANKKCQDVIVAARNLMTSEIHNTVKIIPDSKINVPELPTPDEDNKLEVQKVSNTQYHEVMNLEPENTLDQHSFSLPTCRISESVKKLMELAYQTLLEATTSSDQCAVQLFYSVRNIFHLFHDVVPTYHKENLQKLPQLAAIHHNNCMYIAHHLLTLGHQFRLRLAPILCDGTATFVDLVPGFRRLGTECFLAQMRAQKGELLERLSSARNFSNMDDEENYSAASKAVRQVLHQLKRLGIVWQDVLPVNIYCKAMGTLLNTAISEVIGKITALEDISTEDGDRLYSLCKTVMDEGPQVFAPLSEESKNKKYQEEVPVYVPKWMPFKELMMMLQASLQEIGDRWADGKGPLAAAFSSSEVKALIRALFQNTERRAAALAKIK
B1 showed a β-galactosidase assay of 2.14.

B2: hZW10 C1 (aa 1–772) (domain or fragment, human, UniProt O43264 1-772, looked up)
chain: MASFVTEVLAHSGRLEKEDLGTRISRLTRRVEEIKGEVCNMISKKYSEFLPSMQSAQGLITQVDKLSEDIDLLKSRIESEVRRDLHVSTGEFTDLKQQLERDSVVLSLLKQLQEFSTAIEEYNCALTEKKYVTGAQRLEEAQKCLKLLKSRKCFDLKILKSLSMELTIQKQNILYHLGEEWQKLIVWKFPPSKDTSSLESYLQTELHLYTEQSHKEEKTPMPPISSVLLAFSVLGELHSKLKSFGQMLLKYILRPLASCPSLHAVIESQPNIVIIRFESIMTNLEYPSPSEVFTKIRLVLEVLQKQLLDLPLDTDLENEKTSTVPLAEMLGDMIWEDLSECLIKNCLVYSIPTNSSKLQQYEEIIQSTEEFENALKEMRFLKGDTTDLLKYARNINSHFANKKCQDVIVAARNLMTSEIHNTVKIIPDSKINVPELPTPDEDNKLEVQKVSNTQYHEVMNLEPENTLDQHSFSLPTCRISESVKKLMELAYQTLLEATTSSDQCAVQLFYSVRNIFHLFHDVVPTYHKENLQKLPQLAAIHHNNCMYIAHHLLTLGHQFRLRLAPILCDGTATFVDLVPGFRRLGTECFLAQMRAQKGELLERLSSARNFSNMDDEENYSAASKAVRQVLHQLKRLGIVWQDVLPVNIYCKAMGTLLNTAISEVIGKITALEDISTEDGDRLYSLCKTVMDEGPQVFAPLSEESKNKKYQEEVPVYVPKWMPFKELMMMLQASLQEIGDRWADGKGPLAAAFSSSEVKALIRALFQNTERRA
In turn, B2 showed a β-galactosidase assay of 3.4.

B3: hZW10 C2 (aa 1–698) (domain or fragment, human, UniProt O43264 1-698, looked up)
chain: MASFVTEVLAHSGRLEKEDLGTRISRLTRRVEEIKGEVCNMISKKYSEFLPSMQSAQGLITQVDKLSEDIDLLKSRIESEVRRDLHVSTGEFTDLKQQLERDSVVLSLLKQLQEFSTAIEEYNCALTEKKYVTGAQRLEEAQKCLKLLKSRKCFDLKILKSLSMELTIQKQNILYHLGEEWQKLIVWKFPPSKDTSSLESYLQTELHLYTEQSHKEEKTPMPPISSVLLAFSVLGELHSKLKSFGQMLLKYILRPLASCPSLHAVIESQPNIVIIRFESIMTNLEYPSPSEVFTKIRLVLEVLQKQLLDLPLDTDLENEKTSTVPLAEMLGDMIWEDLSECLIKNCLVYSIPTNSSKLQQYEEIIQSTEEFENALKEMRFLKGDTTDLLKYARNINSHFANKKCQDVIVAARNLMTSEIHNTVKIIPDSKINVPELPTPDEDNKLEVQKVSNTQYHEVMNLEPENTLDQHSFSLPTCRISESVKKLMELAYQTLLEATTSSDQCAVQLFYSVRNIFHLFHDVVPTYHKENLQKLPQLAAIHHNNCMYIAHHLLTLGHQFRLRLAPILCDGTATFVDLVPGFRRLGTECFLAQMRAQKGELLERLSSARNFSNMDDEENYSAASKAVRQVLHQLKRLGIVWQDVLPVNIYCKAMGTLLNTAISEVIGKITALEDISTEDGDRLYSLCKTVMDEGPQVFA
On to B3, for which the β-galactosidase assay amounted to 2.6.
